{"source": "paper PMC8991485", "about": "“Protein purification strategies must consider downstream applications and individual biological characteristics” (Microbial Cell Factories, 2022)", "molecules": {"B1": {"name": "soluble LLT1 H176C mutant (domain or fragment)", "chain": "QAACPESWIGFQRKCFYFSDDTKNWTSSQRFCDSQDADLAQVESFQELNFLLRYKGPSDHWIGLSREQGQPWKWINGTEWTRQFPILGAGECAYLNDKGASSARCYTERKWICSKSDIHV", "notes": "soluble fragment of the lymphocyte receptor LLT1 with H176C, which restores the disulfide Cys163-Cys176; also called second mutant; source: HEK293T cell line, purified (gel filtration)"}}, "key": {"[1]": {"target": "cysteine-less mutant of Galectin-1 (UniProt P09382)", "assay": "AUC; analytical ultracentrifugation (sedimentation) of Galectin-1 purified in reducing or non-reducing conditions"}, "[2]": {"target": "wild-type recombinant soluble LLT1", "assay": "SEC; gel filtration of recombinant soluble LLT1 made in HEK293T; peak at 16 ml taken as the non-covalent dimer"}, "[3]": {"target": "the molecule itself", "assay": "SEC; gel filtration of recombinant soluble LLT1 made in HEK293T; peak at 16 ml taken as the non-covalent dimer"}}, "data": [{"molecule": "cysteine-less mutant of Galectin-1 (from UniProt P09382 1-135)", "values": [{"measurement": "stoichiometry N", "setting": "[1]", "value": 2}]}, {"molecule": "wild-type recombinant soluble LLT1 (domain or fragment)", "values": [{"measurement": "stoichiometry N", "setting": "[2]", "value": 2}]}, {"molecule": "B1", "values": [{"measurement": "stoichiometry N", "setting": "[3]", "value": 2}]}]}
